Measured values from US20170059578A1 (ROCHE SEQUENCING SOLUTIONS, published 2017).

B1: … (SEQ ID NO:1) with deletion of the His at the 10th position from the N-terminus (peptide)
peptide: GFEDYLGEYG
notes: Deletion made by design ([-]) or imitated by synthesis conditions [1]; (solvent alone) and [2]; (no reagent); also called His deletion peptide; synthesis conditions [1] and [2]
B2: … (SEQ ID NO:2) with deletion of the Met at the 6th position from the N-terminus (peptide)
peptide: GWTHPFEQKG
notes: Deletion made by design ([-]) or imitated by synthesis conditions [1]; (solvent alone) and [2]; (no reagent); also called deletion control peptide; synthesis conditions [1] and [2]

Target: T1, streptavidin (UniProt P22629 37-163, limits assumed)
T1 construct: Applied in solution to the peptide array and detected by fluorescence; also called streptavidin receptor; receptor
T1 sequence (P22629 37-163 limits assumed): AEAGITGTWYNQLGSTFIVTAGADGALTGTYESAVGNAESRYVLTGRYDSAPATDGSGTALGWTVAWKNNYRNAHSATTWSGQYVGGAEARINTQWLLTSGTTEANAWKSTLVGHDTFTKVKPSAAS
Assay: peptide array, fluorescence signal of bound streptavidin

Row | Binder | binding result
1 | B1 | no binding
2 | B2 | no binding
